Earlier results as cited in paper PMC11348067.

Molecular target: Mucin 1 (human) (UniProt P15941)
Assay: not stated (cited)
Conditions: aptamer/padlock annealed in water with 80 mM NaCl (2 uL of 800 mM in 20 uL), then 40 uL protein added, 30 min; pH and binding temperature not stated; ligation …

Mucin 1 (human), sequence (P15941 24-1158): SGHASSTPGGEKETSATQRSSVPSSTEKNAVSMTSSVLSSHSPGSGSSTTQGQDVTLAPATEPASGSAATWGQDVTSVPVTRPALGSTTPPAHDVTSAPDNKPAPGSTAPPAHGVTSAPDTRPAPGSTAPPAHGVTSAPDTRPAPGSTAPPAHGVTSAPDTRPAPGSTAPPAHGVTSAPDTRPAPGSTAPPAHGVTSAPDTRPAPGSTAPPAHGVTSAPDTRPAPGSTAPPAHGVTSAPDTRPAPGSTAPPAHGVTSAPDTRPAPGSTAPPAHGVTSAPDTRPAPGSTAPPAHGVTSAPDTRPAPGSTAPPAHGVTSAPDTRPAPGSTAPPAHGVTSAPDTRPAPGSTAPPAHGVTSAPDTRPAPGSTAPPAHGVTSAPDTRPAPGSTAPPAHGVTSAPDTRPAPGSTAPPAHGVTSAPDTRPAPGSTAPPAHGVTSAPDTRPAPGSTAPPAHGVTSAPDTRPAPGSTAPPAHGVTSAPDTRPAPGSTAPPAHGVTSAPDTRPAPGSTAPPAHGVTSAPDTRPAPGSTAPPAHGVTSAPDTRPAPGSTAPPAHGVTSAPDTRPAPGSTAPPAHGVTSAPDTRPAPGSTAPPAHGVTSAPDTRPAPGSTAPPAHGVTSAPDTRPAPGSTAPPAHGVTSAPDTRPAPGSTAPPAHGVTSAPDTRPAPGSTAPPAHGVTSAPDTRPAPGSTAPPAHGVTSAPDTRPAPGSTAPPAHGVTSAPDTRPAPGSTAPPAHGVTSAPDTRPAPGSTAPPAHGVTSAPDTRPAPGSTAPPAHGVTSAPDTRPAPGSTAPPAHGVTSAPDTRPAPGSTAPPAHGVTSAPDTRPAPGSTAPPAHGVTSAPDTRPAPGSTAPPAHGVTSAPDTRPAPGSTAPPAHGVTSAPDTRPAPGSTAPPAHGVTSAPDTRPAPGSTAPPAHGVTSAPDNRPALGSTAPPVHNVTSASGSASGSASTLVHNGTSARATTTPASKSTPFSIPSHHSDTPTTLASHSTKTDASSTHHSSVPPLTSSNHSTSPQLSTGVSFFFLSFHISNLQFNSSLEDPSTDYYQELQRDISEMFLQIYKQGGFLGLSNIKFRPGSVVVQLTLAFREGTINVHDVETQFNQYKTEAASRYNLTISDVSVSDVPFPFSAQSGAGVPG

GCAGTTGATCCTTTGGATACCCTGGAGTGA [Mucin 1 aptamer]
Kd: 0.135 nM
